Source: paper PMC8646365

Target: cancer-testis antigen Ny-ESO-1 peptide on HLA-A*02:01 (human)
Experiment: NFAT-luciferase, TCR-KO CD8+ Jurkat

Question: For 1G4_a95LY TCR, which EC50 of peptide is on record?
Answer: The EC50 of peptide was 0.05 nM.
